Data on 14 molecules can be found in US20240327530A1 (ICHNOS SCIENCES, published 2024).

Assay [1] concerns the target T1, Recombinant human IL-1RAP Fc fusion protein (Acrobiosystems, catalog no. ILP-H5256) (human, UniProt Q9NPH3 21-359, limits assumed).
T1 construct: Bought; not shown: Fc part of the bought fusion protein
T1 sequence: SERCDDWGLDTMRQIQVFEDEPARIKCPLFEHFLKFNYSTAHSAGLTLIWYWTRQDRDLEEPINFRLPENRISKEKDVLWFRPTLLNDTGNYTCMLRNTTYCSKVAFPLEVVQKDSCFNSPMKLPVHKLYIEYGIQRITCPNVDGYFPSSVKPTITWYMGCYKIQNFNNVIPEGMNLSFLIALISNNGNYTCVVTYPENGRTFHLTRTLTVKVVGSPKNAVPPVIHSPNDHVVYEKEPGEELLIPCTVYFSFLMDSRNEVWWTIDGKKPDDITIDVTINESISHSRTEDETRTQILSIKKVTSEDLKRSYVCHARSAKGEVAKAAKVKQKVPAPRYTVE
The assay is described as follows: SPR, human IL-1RAP-Fc captured, Fab as analyte, 1:1 fit. The protocol:
(§1) Surface plasmon resonance (SPR) was used to measure the binding affinities of the Fab fragments for human, cynomolgus monkey and/or mouse IL-1RAP. Affinities were measured on a BIACORE™ T200 instrument (BIACORE™, GE […]®) at 25° C. and analyzed with the BIACORE™ T200 Evaluation Software (v3.1). Measurements were performed on Series S CM5 sensor chips (BIACORE™ T200, BIACORE™, GE […]®, catalog no. BR100530) coupled with anti-human IgG Fc (BIACORE™, GE […]®, catalog no. BR100839) using a commercial amine coupling kit (BIACORE™, GE […]®, catalog no. BR100050) or on Series S BiotinCAPture chips (BIACORE™, GE […]®, catalog no. 28920234). SPR measurements were performed with commercially available recombinant human IL-1RAP Fc fusion protein (Acrobiosystems, catalog no. ILP-H5256) and recombinant mouse IL-1RAP Fc fusion protein (Sino Biologicals, catalog no. 52657-M02H) or with biotinylated recombinant cynomolgus monkey IL-1RAP-avi-his protein produced in-house (SEQ ID NO. 2).
(§2) The affinities to human, cynomolgus monkey and mouse IL-1RAP were assessed by immobilizing IL-1RAP and using Fab fragments as analyte. Around 100 RU of human or mouse IL-1RAP Fc fusion protein were captured on fc2 of a Series S CM5 sensor chip coupled with anti-human IgG Fc and around 150 RU of biotinylated cynomolgus monkey IL-1RAP protein were captured on fc2 of a Series S BiotinCAPture chip. Fab fragments were injected in single cycle kinetic at different concentrations ranging from 7.8 to 500 nM, in HBS-EP+ buffer (BIACORE™, GE […]®, catalog no. BR100669) at a flow rate of 30 μl/min for 3 min on fc1 and fc2 (fc1 being used as reference). Dissociation was monitored for 5 min. After each cycle, the surface was regenerated with 60 μl of regeneration solution provided with anti-human IgG Fc capture kit (BIACORE™, GE […]®, catalog no. BR100839) or BiotinCAPture kit (BIACORE™, GE […]®, catalog no. 28920234) respectively. Experimental data were processed using the 1:1 Langmuir kinetic fitting model. Measurements included zero-concentration samples for referencing. Chi², U- and residual values were used to evaluate the quality of a fit between the experimental data and individual binding models.

Assay [2] deals with T2, Recombinant cynomolgus monkey IL-1RAP-ECD(S21-E359)-avi-his protein (cynomolgus monkey, UniProt P59822 21-359 (rhesus entry)).
T2 construct: also called cyno IL-1RAP-ECD-Avi-His; recombinant cynomolgus monkey IL-1RAP-avi-his protein
T2 sequence: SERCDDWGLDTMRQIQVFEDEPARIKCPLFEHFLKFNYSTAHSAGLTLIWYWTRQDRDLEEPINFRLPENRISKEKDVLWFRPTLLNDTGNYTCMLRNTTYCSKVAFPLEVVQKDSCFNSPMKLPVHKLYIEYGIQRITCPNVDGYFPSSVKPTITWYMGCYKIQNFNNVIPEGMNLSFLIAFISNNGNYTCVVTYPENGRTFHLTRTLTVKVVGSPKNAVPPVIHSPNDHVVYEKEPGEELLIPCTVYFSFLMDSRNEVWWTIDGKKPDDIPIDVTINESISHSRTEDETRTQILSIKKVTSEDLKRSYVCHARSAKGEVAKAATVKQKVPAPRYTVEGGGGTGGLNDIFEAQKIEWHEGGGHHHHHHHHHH
In words: SPR, biotinylated cyno IL-1RAP-avi-his captured, Fab as analyte, 1:1 fit. The protocol:
as §1, §2
(In general: SPR reads the build-up and loss of mass on a sensor chip optically.)

Assay [3] has as its target T3, Recombinant mouse IL-1RAP Fc fusion protein (Sino Biologicals, catalog no. 52657-M02H) (mouse, UniProt Q61730 21-350).
T3 construct: Bought; not shown: Fc part of the bought fusion protein
T3 sequence: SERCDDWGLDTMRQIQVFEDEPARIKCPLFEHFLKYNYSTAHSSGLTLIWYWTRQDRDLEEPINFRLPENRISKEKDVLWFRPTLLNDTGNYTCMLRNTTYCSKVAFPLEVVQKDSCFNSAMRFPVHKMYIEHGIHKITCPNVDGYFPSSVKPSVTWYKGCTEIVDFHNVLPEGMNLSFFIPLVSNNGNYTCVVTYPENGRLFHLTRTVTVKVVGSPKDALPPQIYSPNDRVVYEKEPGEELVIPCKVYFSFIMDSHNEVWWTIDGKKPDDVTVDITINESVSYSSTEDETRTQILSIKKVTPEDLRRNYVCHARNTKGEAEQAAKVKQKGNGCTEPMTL
In words: SPR, mouse IL-1RAP-Fc captured, Fab as analyte. As for the experimental part:
as §1, §2

In assay [4] the target is T1, Recombinant human IL-1RAP Fc fusion …. The assay is described as follows: SPR, human IL-1RAP-Fc captured, Fab as analyte (0.08 to 50 nM). The protocol:
BR100669) at a flow rate of 30 μl/min for 3 min on fc1 and fc2 (fc1 being used as reference). Dissociation was monitored for 5 min. After each cycle, the surface was regenerated with 60 μl of regeneration solution provided with anti-human IgG Fc capture kit (BIACORE™, GE […]®, catalog no. BR100839) or BiotinCAPture kit (BIACORE™, GE […]®, catalog no. 28920234) respectively. Experimental data were processed using the 1:1 Langmuir kinetic fitting model. Measurements included zero-concentration samples for referencing. Chi², U- and residual values were used to evaluate the quality of a fit between the experimental data and individual binding models. […]

Substitutions are numbered along the chain they refer to. In names and notes the source's numbering stands.

B1: Anti-IL-1RAP-UCP03-G4-Fab (Fab, V domains shown)
VH: QVQLVQSGAEVKKPGSSVKVSCKASGGRFSHYVFSWVRQAPGQGLEWMGGIIPYEGKPFYAQKFQGRVTITADESTSTAYMELSSLRSEDTAVYYCARSDYFYYYFDPWGQGTLVTVSS
VL: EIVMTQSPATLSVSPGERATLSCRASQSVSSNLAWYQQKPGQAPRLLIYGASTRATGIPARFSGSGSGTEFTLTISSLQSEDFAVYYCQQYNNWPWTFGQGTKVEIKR
Consider B1, for which the Kd in assay [1] worked out at 420 nM; in assay [2], 378 nM. In addition, the binding result in assay [3] is “no binding (tested: 7.8 to 500 nM Fab)”.

B2: Anti-IL-1RAP-UCP03-B6-Fab (Fab, V domains shown)
VH: QVQLVQSGAEVKKPGSSVKVSCKASGDPFSVYIIHWVRQAPGQGLEWMGYIIAQQGSASYAQKFQGRVTITADESTSTAYMELSSLRSEDTAVYYCARVPDPYSGHFDYWGQGTLVTVSS
VL: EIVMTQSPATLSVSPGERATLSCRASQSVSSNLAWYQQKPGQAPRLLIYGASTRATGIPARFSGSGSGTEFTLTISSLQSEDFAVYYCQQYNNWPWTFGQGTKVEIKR
In the case of B2, the Kd in assay [1] was determined as 545 nM; in assay [2], 756 nM. In addition, in assay [3], the binding result is on record as “no binding (tested: 7.8 to 500 nM Fab)”.

B3: Anti-IL-1RAP-UCP03-C2-Fab (Fab, V domains shown)
VH: QVQLVQSGAEVKKPGSSVKVSCKASGDPFKRYAIGWVRQAPGQGLEWMGGIIPTTGEAIYAQKFQGRVTITADESTSTAYMELSSLRSEDTAVYYCARHGTTYAAFDHWGQGTLVTVSS
VL: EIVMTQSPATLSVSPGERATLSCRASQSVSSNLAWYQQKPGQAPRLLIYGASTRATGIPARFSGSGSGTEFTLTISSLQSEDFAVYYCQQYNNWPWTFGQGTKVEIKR
In the case of B3, the dissociation constant (Kd) turned out to be 700 nM in assay [1] and 486 nM in assay [2]. For the same molecule, the binding result in assay [3] was “no binding (tested: 7.8 to 500 nM Fab)”.

B4: Anti-IL-1RAP-UCP03-B4-Fab (Fab, V domains shown)
VH: QVQLVQSGAEVKKPGSSVKVSCKASGGPFSQHAISWVRQAPGQGLEWMGGIIPFEGVAFYAQKFQGRVTITADESTSTAYMELSSLRSEDTAVYYCARSSSYYSWLDYWGQGTLVTVSS
VL: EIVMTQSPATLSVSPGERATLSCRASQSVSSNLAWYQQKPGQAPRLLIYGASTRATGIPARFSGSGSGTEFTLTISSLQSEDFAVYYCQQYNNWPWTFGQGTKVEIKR
With B4, the figures for the Kd in assay [1] and in assay [2] were 221 nM and 220 nM, respectively. In addition, in assay [3], the binding result is “no binding (tested: 7.8 to 500 nM Fab)”.

B5: Anti-IL-1RAP-UCP03-G3-Fab (Fab, V domains shown)
VH: QVQLVQSGAEVKKPGSSVKVSCKASGGPLSGYAFHWVRQAPGQGLEWMGGIIPNFAQTDYAQKFQGRVTITADESTSTAYMELSSLRSEDTAVYYCARFSIYSGWSDVWGQGTLVTVSS
VL: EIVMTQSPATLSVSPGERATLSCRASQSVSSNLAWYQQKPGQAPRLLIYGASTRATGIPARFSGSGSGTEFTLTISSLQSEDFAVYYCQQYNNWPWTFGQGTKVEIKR
In the case of B5, the values for the Kd in assay [1] and in assay [2] were 279 nM and 464 nM, respectively. Further, the binding result in assay [3] was “no binding (tested: 7.8 to 500 nM Fab)”.

B6: Anti-IL-1RAP-C8-H1A-C4-Fab (Fab, V domains shown)
VH: QVQLVQSGAEVKKPGSSVKVSCKASGGKLNAYAIQWVRQAPGQGLEWMGYIIPLHGQVDYAQKFQGRVTITADESTSTAYMELSSLRSEDTAVYYCARGQTLYDSGRQFDIWGQGTLVTVSS
VL: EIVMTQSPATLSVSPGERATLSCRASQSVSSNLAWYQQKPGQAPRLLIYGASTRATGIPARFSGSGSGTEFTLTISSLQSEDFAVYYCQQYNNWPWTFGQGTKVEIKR
Turning to B6, in assay [4], the Kd amounted to 0.995 nM.

B7: Anti-IL-1RAP-C8-H1A-D8-Fab (Fab, V domains shown)
VH: B6 VH with K28H, L29F, A31N
VL: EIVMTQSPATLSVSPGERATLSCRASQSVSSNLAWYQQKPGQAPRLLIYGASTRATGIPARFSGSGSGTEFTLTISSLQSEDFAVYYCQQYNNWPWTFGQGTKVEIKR
Take B7: the Kd in assay [4] turned out to be 1.51 nM.

B8: Anti-IL-1RAP-C8-H1A-G1-Fab (Fab, V domains shown)
VH: B6 VH with K28A, L29S, N30R, Q35H
VL: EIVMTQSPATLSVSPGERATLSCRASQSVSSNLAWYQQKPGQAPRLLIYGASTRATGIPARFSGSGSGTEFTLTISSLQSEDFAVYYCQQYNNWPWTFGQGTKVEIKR
Consider B8, for which the dissociation constant (Kd) in assay [4] was found to be 0.424 nM.

B9: Anti-IL-1RAP-C8-H1A-F1-Fab (Fab, V domains shown)
VH: B6 VH with K28I, L29F, N30S, A31N
VL: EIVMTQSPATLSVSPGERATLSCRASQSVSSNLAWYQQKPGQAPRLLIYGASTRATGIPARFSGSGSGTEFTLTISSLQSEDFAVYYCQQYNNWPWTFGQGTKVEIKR
On to B9, for which the Kd in assay [4] worked out at 0.832 nM.

B10: Anti-IL-1RAP-C8-H1A-G3-Fab (Fab, V domains shown)
VH: B6 VH with K28P, L29F, N30S, A31D
VL: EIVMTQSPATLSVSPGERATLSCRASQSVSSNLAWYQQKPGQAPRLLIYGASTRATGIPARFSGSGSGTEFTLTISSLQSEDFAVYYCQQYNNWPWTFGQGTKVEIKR
Turning to B10, the Kd in assay [4] was 0.623 nM.

B11: Anti-IL-1RAP-C8-H1A-C8-Fab (Fab, V domains shown)
VH: B6 VH with K28L, L29F, N30S, A31D
VL: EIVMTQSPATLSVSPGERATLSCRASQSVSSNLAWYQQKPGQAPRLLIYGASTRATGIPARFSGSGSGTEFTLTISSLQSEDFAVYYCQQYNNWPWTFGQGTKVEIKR
B11: the equilibrium dissociation constant (Kd) in assay [4] was 1.24 nM.

B12: Anti-IL-1RAP-C8-H1B-A8-Fab (Fab, V domains shown)
VH: B6 VH with G27E, K28G, L29S, N30Y, A31P
VL: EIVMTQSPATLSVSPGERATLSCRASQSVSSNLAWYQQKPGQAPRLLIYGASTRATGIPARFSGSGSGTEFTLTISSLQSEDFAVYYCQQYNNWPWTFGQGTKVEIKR
Take B12: the dissociation constant (Kd) in assay [4] is 0.522 nM.

B13: Anti-IL-1RAP-C8-H1A-G11-Fab (Fab, V domains shown)
VH: B6 VH with K28R, L29F, N30H, A31Q
VL: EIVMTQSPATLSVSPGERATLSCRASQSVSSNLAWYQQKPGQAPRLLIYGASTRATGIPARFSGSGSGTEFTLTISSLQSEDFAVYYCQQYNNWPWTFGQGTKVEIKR
For B13, the Kd in assay [4] came out at 0.742 nM.

B14: Anti-IL-1RAP-UCP02-B11-Fab (Fab, V domains shown)
VH: QVQLVQSGAEVKKPGSSVKVSCKASGGHFSQFAISWVRQAPGQGLEWMGGIAPGLGSTRYAQKFQGRVTITADESTSTAYMELSSLRSEDTAVYYCARDSIYSAWLAYWGQGTLVTVSS
VL: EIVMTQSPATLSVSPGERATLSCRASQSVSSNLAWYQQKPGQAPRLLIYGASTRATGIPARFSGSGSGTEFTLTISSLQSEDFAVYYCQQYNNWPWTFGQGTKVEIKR
B14: the Kd in assay [1] amounted to 98.1 nM; in assay [2], 78.7 nM. The binding result in assay [3] was “no binding (tested: 7.8 to 500 nM Fab)”.

As usually defined, the Kd is the free concentration of one partner at which half of the binding sites on the other are occupied at equilibrium, for simple one-to-one binding.
